From patent US20180326084A1 (Genmab, published 2018) come the findings set out here.

As a reminder, the Kd is the constant that tells how readily two partners part at equilibrium. A low value points to a tighter complex. As usually defined, the koff is a measure of how fast the partners let go of each other. Broadly, the kon is the second-order rate constant of association. High values mean fast association, low ones slow association. In general, EC50 refers to the concentration that produces a half-maximal response.

Test [1] deals with T1, Homo sapiens AXL-Mus musculus FN2 domain (p33-AXL-mFN2) (human-mouse chimera, UniProt P30530 26-894).
T1 construct: Expressed in HEK293F cells; also called hsAXL-mmFN2; TH1021-mFN2
T1 chain: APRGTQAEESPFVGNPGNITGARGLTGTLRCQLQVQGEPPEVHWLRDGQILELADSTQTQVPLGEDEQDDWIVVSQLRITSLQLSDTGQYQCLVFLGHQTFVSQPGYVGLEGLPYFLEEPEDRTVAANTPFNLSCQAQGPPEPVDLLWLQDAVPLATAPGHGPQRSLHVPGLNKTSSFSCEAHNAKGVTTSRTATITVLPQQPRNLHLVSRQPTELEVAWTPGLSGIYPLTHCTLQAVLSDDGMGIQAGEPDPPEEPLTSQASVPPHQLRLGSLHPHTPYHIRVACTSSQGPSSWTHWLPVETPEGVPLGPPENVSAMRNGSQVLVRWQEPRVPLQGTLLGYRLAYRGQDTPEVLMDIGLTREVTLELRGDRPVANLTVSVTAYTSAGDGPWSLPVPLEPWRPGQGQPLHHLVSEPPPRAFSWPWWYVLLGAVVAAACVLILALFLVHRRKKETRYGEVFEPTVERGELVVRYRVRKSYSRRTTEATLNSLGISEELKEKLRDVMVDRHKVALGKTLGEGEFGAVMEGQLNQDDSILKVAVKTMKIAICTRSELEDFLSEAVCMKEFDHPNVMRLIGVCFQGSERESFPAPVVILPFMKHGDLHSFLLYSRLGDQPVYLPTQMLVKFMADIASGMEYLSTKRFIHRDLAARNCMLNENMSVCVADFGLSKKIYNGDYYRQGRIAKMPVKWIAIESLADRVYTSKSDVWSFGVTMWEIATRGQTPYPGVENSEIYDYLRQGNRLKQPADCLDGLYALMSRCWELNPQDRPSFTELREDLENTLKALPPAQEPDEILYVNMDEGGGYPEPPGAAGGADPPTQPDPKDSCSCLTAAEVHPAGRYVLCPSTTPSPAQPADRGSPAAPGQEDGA
Nature of the test: flow cytometry, 1 µg/mL antibody, transfected HEK293F cells. (A flow cytometer gives signals particle by particle.)

A further test has as its target T2, AXLECDHis (human, UniProt P30530 26-447).
T2 construct: theoretical mass 46 kDa used; also called extracellular domain (ECD) of human AXL (aa 1-447) with a C-terminal His tag; soluble recombinant AXL extracellular domain
Nature of the test: BLI (Octet), IgG on anti-human Fc sensor, AXLECDHis analyte. Background: In BLI a coated tip is dipped into the sample, and binding shifts an interference pattern.

The target in test [2] is T3, human AXL (full length) (human, UniProt P30530 26-894).
T3 construct: also called TH1021-AXL; TH1021-hAXL
Kind of test: flow cytometry, HEK293T cells with full-length human AXL.

The target in test [3] is T4, Homo sapiens AXL-Mus musculus Ig1 domain (p33-AXL-mIg1) (human-mouse chimera, UniProt P30530 8-894).
T4 construct: Expressed in HEK293F cells; also called hsAXL-mmIg1; hsAXL-mmIgl
T4 chain: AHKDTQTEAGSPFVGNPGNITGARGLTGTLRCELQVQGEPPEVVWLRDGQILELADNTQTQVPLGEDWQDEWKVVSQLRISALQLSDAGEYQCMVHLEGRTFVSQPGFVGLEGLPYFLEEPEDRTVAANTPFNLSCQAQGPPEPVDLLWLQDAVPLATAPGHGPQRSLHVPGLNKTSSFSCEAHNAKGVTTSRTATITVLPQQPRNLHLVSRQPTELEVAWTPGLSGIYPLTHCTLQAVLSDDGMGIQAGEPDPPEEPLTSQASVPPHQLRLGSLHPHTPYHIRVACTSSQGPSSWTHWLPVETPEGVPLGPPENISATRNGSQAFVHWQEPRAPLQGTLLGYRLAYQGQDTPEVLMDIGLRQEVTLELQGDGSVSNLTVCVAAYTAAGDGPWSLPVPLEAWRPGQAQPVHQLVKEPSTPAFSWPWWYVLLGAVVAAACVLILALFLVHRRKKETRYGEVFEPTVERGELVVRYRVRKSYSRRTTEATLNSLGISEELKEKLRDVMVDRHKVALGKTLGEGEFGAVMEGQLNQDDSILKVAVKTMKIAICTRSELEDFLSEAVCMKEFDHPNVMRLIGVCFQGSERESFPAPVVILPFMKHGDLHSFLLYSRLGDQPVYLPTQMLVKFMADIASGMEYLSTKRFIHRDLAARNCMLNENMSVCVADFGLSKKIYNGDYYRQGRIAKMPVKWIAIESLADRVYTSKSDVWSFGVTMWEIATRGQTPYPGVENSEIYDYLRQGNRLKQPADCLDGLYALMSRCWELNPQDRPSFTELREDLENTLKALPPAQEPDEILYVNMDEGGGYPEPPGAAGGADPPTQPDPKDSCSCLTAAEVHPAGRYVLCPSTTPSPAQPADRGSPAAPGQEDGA
Nature of the test: flow cytometry, 1 µg/mL antibody, transfected HEK293F cells.

Test [4] has as its target T3, human AXL (full length). Kind of test: flow cytometry, A431 cells, no Gas6.
Test [5] addresses T3, human AXL (full length). Nature of the test: flow cytometry, A431 cells pre-incubated with 10 µg/mL Gas6 (competitor).

B1: IgG1-AXL-148 (antibody, V domains shown)
VH: EVQLLESGGGLVQPGGSLRLSCAASGFTFSSYAMTWVRQAPGKGLEWVSAISISGGSTFYADSVKGRFTISRDNSKNTLYLQMNSLRAEDTAVYYCRGYSGYVYDAFDFWGQGTMVTVSS
VL: DIQMTQSPSSLSASVGDRVTITCRASQGISNWLAWYQQKPEKAPKSLIYAASSLQSGVPSRFSGSGSGTDFTLTISSLQPEDFATYYCQQYNSYPLTFGGGTKVEIK
For B1, the binding result in test [1] was “binds”. In the test with AXLECDHis, this molecule had a dissociation constant Kd of 0.02 µM, a dissociation rate constant (koff) of 0.0044 s⁻¹ and a kon of 230000 M⁻¹ s⁻¹. In the test with human AXL (full length) [2], this molecule yielded an EC50 of 0.094 mg/L. For the same molecule, the binding result in test [3] is “binds”. The same molecule returned an EC50 with human AXL (full length) [4] of 0.11 mg/L. Moreover, in the test with human AXL (full length) [5], the EC50 worked out at 0.2 mg/L and the “maximal binding in presence of Gas6 (% of binding in absence of Gas6)” value came to 93%.

B2: IgG1-AXL-726 (antibody, V domains shown)
VH: QVQLQQWGAGLLKPSETLSLTCAIDGGSFSGYYWSWIRQPPGKGLEWIGEISHSGRTNYNPSLKSRVTISIDTSKNQFSLKLSSVAAADTAVYYCARFITMIRGAIITHFDYWGQGALVTVSS
VL: DIQMTQSPSSLSASVGDRVTITCRASQGISSWLAWYQQKPEKAPKSLIYAASSLQSGVPSRFSGSGSGTDFTLTISSLQPEDFATYYCQQYHSYPYTFGQGTKLEIK
In the test with AXLECDHis, B2 gave an equilibrium dissociation constant (Kd) of 0.0006 µM, an off-rate constant (koff) of 0.00013 s⁻¹ and a kon of 240000 M⁻¹ s⁻¹. Further, in the test with human AXL (full length) [2], the EC50 amounted to 0.288 mg/L. In addition, the binding result in test [3] is given as “binds”. This molecule returned an EC50 with human AXL (full length) [4] of 0.32 mg/L. In the test with human AXL (full length) [5], the EC50 came to 0.55 mg/L and the “maximal binding in presence of Gas6 (% of binding in absence of Gas6)” value was determined as 97%.

B3: IgG1-AXL-733 (antibody, V domains shown)
VH: QVQLVESGGGVVQPGRSLRLSCAASGFSFSTYAMHWVRQAPGKGLEWVAVISYDGDNKYSADSVKGRFTISRDNSKNTLYLQMNSLRAEDTAVYYCARGRKLGIDAFDIWGQGTMVTVSS
VL: AIQLTQSPSSLSASVGDRVTITCRASQGISSALAWYQQKPGKAPKLLIYDASSLESGVPSRFSGSGSGTDFTLTISGLQPEDFATYYCQQFNSYPFTFGPGTKVDIK
B3: the binding result in test [1] and in test [3] was “binds” each time. Binding with AXLECDHis was put at a Kd of 0.063 µM. This molecule also gave a koff with AXLECDHis of 0.0097 s⁻¹. The kon with AXLECDHis stood at 160000 M⁻¹ s⁻¹. Moreover, the EC50 with human AXL (full length) [2] was determined as 0.176 mg/L; with human AXL (full length) [4], 0.49 mg/L; in the test with human AXL (full length) [5], 0.62 mg/L. Moreover, the “maximal binding in presence of Gas6 (% of binding in absence of Gas6)” value in the test with human AXL (full length) [5] is 93%.

B4: IgG1-AXL-183 (antibody, V domains shown)
VH: QVQLQQWGAGLLKPSETLSLTCAVYGGSFSGYYWSWIRQPPGKGLEWIGEINQSGSTNYNPSLKSRVTISVDTSKNQFSLKLSSVTAADTSVYYCASGNWDHFFDYWGQGTLVTVSS
VL: DIQMTQSPSSVSASVGDRVTITCRASQGISSWLAWYQHKPGKAPKLLIYATSSLQSGVTSRFSGSGSGTDFTLTISSLQPEDFATYYCQQAKSFPWTFGQGTKVEIK
For B4, the binding result in test [1] was “binds”. In the test with AXLECDHis, binding was characterised by a dissociation constant (Kd) of 0.0102 µM, the koff was 0.00042 s⁻¹ and the kon was 41000 M⁻¹ s⁻¹. In the test with human AXL (full length) [2], this molecule came in with an EC50 of 0.526 mg/L. The binding result in test [3] is listed as “binds”. The molecule further gave an EC50 in the test with human AXL (full length) [4] of 0.69 mg/L. In the test with human AXL (full length) [5], the concentration for a half-maximal effect (EC50) worked out at 1.19 mg/L and the “maximal binding in presence of Gas6 (% of binding in absence of Gas6)” value worked out at 90%.
